# The supplement of paper PMC7125110
# ± gives the standard error. Variants at the floor of the assay were thinned out.
# B1: glmS ribozyme (parent)
# chain: AUAAAAGCGCCAGAACUACAGAAAUGUAGUUGACGAGGAGGAGGUUUAUCGAAUUUUCGGCGGAUGCCUCCAAA
# What was measured:
# Conditions in all cases: with glucosamine-6-phosphate
# [1] = variants of: B1; assay: self-cleavage kobs at 640 uM GlcN6P; higher = faster cleavage; RNA array
# Procedure, shortened: (§1)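 Glucosamine-6-phosphate (40 μM to 10 mM) in HEPES/KCl/Mg(OAc)2 buffer was flowed over sequenced MiSeq chips, and tiles were imaged over ~14 h. Barcoded ribozyme variants there had been transcribed in situ by E. coli RNA polymerase and were tracked through a hybridised Cy3 probe at 37 °C. One- or two-exponential decay fits to per-tile medians, normalised to baseline and to non-cleaving reference variants, gave kobs. kcat and KM came from weighted Michaelis–Menten fits across concentrations.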
# [2] = variants of: B1; assay: self-cleavage kobs at 2500 uM GlcN6P; higher = faster cleavage; RNA array
# Procedure, shortened: as §1
# [3] = variants of: B1; assay: self-cleavage kobs at 10000 uM GlcN6P; higher = faster cleavage; RNA array
# Procedure, shortened: as §1
Variant,self-cleavage kobs at 640 uM GlcN6P [1],self-cleavage kobs at 2500 uM GlcN6P [2],self-cleavage kobs at 10000 uM GlcN6P [3]
C11A U54G C67G C71A,0.0001 ± 4e-05 s⁻¹,0.000224 ± 8.9e-05 s⁻¹,
C8A C11U A36G,< 1e-05 s⁻¹,< 1e-05 s⁻¹,
C8G C10G A12U A14G G43A C58U,< 1e-05 s⁻¹,,
C8U U46G C61A C68U,< 1e-05 s⁻¹,,
G9C A15C A64C C68G,< 1e-05 s⁻¹,,
C10U U45C C68A,< 1e-05 s⁻¹,,
C10U G38U U69A,8.22e-05 ± 2.4e-05 s⁻¹,,
C11A A39U U45C G51C C61U,< 1e-05 s⁻¹,< 1e-05 s⁻¹,
C10A C16U G35A,< 1e-05 s⁻¹,< 1e-05 s⁻¹,
C10U A14U G32A A42C,< 1e-05 s⁻¹,,
C8A C11U G60C C67A,< 1e-05 s⁻¹,< 1e-05 s⁻¹,< 1e-05 s⁻¹
C10A G41C A48U,< 1e-05 s⁻¹,< 1e-05 s⁻¹,
C11G G44U U46G U47A G59A A64U C67A,< 1e-05 s⁻¹,,
C8G C58U G59C C61U C67G,< 1e-05 s⁻¹,< 1e-05 s⁻¹,
G9A G32C C61U,< 1e-05 s⁻¹,,< 1e-05 s⁻¹
C8U G9U C68A,< 1e-05 s⁻¹,< 1e-05 s⁻¹,
C11A G37U A64G,< 1e-05 s⁻¹,,
C10G A15C,< 1e-05 s⁻¹,,< 1e-05 s⁻¹
C8U A14C G32A,< 1e-05 s⁻¹,< 1e-05 s⁻¹,
G9U A14C A64U C68A,< 1e-05 s⁻¹,< 1e-05 s⁻¹,
C10A A53G C70G,0.000157 ± 4.8e-05 s⁻¹,0.000151 ± 4.6e-05 s⁻¹,
G9A U47G U49G,< 1e-05 s⁻¹,,
C8U A53G U55A C68G,0.000442 ± 0.00017 s⁻¹,,

Variant,self-cleavage kobs at 640 uM GlcN6P [1],self-cleavage kobs at 2500 uM GlcN6P [2],self-cleavage kobs at 10000 uM GlcN6P [3]
C11U G43A A48U A53C C61U,< 1e-05 s⁻¹,< 1e-05 s⁻¹,
C8A C11A G37U G41C A53C G63C,< 1e-05 s⁻¹,< 1e-05 s⁻¹,
G9C G29A G41A,< 1e-05 s⁻¹,< 1e-05 s⁻¹,
C11U C67A C71U,4.57e-05 ± 1.8e-05 s⁻¹,5.18e-05 ± 1.8e-05 s⁻¹,
C11U G38A C67G,7.1e-05 ± 3.3e-05 s⁻¹,,
C10A A64U U69G,0.000351 ± 0.00014 s⁻¹,,
C10A U54G U65C,< 1e-05 s⁻¹,,
G9A A15U C16A G63C C68U,< 1e-05 s⁻¹,,
C11U A15U G38A A53U,< 1e-05 s⁻¹,,
C8A U55G G63U,< 1e-05 s⁻¹,,
G9U A12G C61A,3.47e-05 ± 1.5e-05 s⁻¹,8.52e-05 ± 1.9e-05 s⁻¹,
G9U C16G G29U G40U G41A G66U,< 1e-05 s⁻¹,< 1e-05 s⁻¹,
C11A G32U C70G,0.000101 ± 4.4e-05 s⁻¹,,
C11G C34G G59A,< 1e-05 s⁻¹,< 1e-05 s⁻¹,
C8G G13U U55C C58U,< 1e-05 s⁻¹,< 1e-05 s⁻¹,
G9A G60A C68G,< 1e-05 s⁻¹,,
C11U G41A G60U G63U C70U,< 1e-05 s⁻¹,< 1e-05 s⁻¹,
A12C A15G A39C,5.62e-05 ± 1.6e-05 s⁻¹,0.000163 ± 4.9e-05 s⁻¹,
G7U U31G C70A,0.000541 ± 0.00017 s⁻¹,,
G9A A14G G38U,< 1e-05 s⁻¹,,< 1e-05 s⁻¹
C8A C16A G63U A64G U65C C71G,< 1e-05 s⁻¹,,
C11U A48U G66U,< 1e-05 s⁻¹,,
C8U C58U,< 1e-05 s⁻¹,,

Variant,self-cleavage kobs at 640 uM GlcN6P [1],self-cleavage kobs at 2500 uM GlcN6P [2],self-cleavage kobs at 10000 uM GlcN6P [3]
G9C C70G,< 1e-05 s⁻¹,,< 1e-05 s⁻¹
C8A C16U G38A,< 1e-05 s⁻¹,,< 1e-05 s⁻¹
C10U A12C G40A,< 1e-05 s⁻¹,< 1e-05 s⁻¹,
C8U G32U C68A,< 1e-05 s⁻¹,,
C8U A39U G59C,< 1e-05 s⁻¹,,
G9U G44C C58A,< 1e-05 s⁻¹,,
G9A G63U C70U,< 1e-05 s⁻¹,,
C8G C11U A15U U57G,< 1e-05 s⁻¹,,
C10A A39U A52G,< 1e-05 s⁻¹,< 1e-05 s⁻¹,< 1e-05 s⁻¹
C10G G13C A39G,< 1e-05 s⁻¹,< 1e-05 s⁻¹,
C8A G13U C16A A33U U65G C71A,< 1e-05 s⁻¹,< 1e-05 s⁻¹,
C10U U49A U55A,< 1e-05 s⁻¹,,
C11U G29U A52C,< 1e-05 s⁻¹,,
C10G C11A A39U,< 1e-05 s⁻¹,< 1e-05 s⁻¹,
C10U G13C A15U C16U C50G,0.000145 ± 6.3e-05 s⁻¹,0.000146 ± 5.6e-05 s⁻¹,
C10A A12C G63C C71G,< 1e-05 s⁻¹,,
C8U C34G A39G G44U,< 1e-05 s⁻¹,,
C8G A14C G29C C34A C67U,< 1e-05 s⁻¹,,
C11G G43C U45C,< 1e-05 s⁻¹,< 1e-05 s⁻¹,
C10G G41U U55A C58G G63U,< 1e-05 s⁻¹,,
C10A A36U G62A,< 1e-05 s⁻¹,,
G9U U56A G63U A64U,< 1e-05 s⁻¹,,
C10G C58G G62C,< 1e-05 s⁻¹,,

Variant,self-cleavage kobs at 640 uM GlcN6P [1],self-cleavage kobs at 2500 uM GlcN6P [2],self-cleavage kobs at 10000 uM GlcN6P [3]
G7U U30G G63U,< 1e-05 s⁻¹,,
C8U G9U A15C G44U,< 1e-05 s⁻¹,< 1e-05 s⁻¹,
C10U G43U U45G,< 1e-05 s⁻¹,< 1e-05 s⁻¹,
C8G G32U U47G C67G C68G,0.000105 ± 3.3e-05 s⁻¹,4.39e-05 ± 2.1e-05 s⁻¹,
C11A A53C G66U,< 1e-05 s⁻¹,,
C10U A39C G41A U46A,< 1e-05 s⁻¹,< 1e-05 s⁻¹,
G9A A48U C50A,< 1e-05 s⁻¹,,
C8A G32A A36C G41A A42U,< 1e-05 s⁻¹,< 1e-05 s⁻¹,
G9U U47A,< 1e-05 s⁻¹,< 1e-05 s⁻¹,
C11A A53G G63A,< 1e-05 s⁻¹,,
C10G C11A C16A C58G C71G,0.00176 ± 0.00062 s⁻¹,0.000241 ± 0.0001 s⁻¹,
C8G G13C G38U C50G,4.5e-05 ± 2.2e-05 s⁻¹,,
C11U G35U G44A,< 1e-05 s⁻¹,< 1e-05 s⁻¹,
G9U C58G G59C,< 1e-05 s⁻¹,< 1e-05 s⁻¹,
C8G G38U C68A,< 1e-05 s⁻¹,,
C8U U31G G35U G44A C70U,< 1e-05 s⁻¹,< 1e-05 s⁻¹,
C11A A14C A52U,< 1e-05 s⁻¹,,
C10U G32A U49A,< 1e-05 s⁻¹,,
C11G A53U U55G C67G,0.000112 ± 4.8e-05 s⁻¹,,
C11G C71G,0.000382 ± 0.00018 s⁻¹,,
C10G A53U U57A,< 1e-05 s⁻¹,,
C8U C11U U55A G62A,< 1e-05 s⁻¹,< 1e-05 s⁻¹,
C8U G29A U31A G37U A52G C71G,0.0078 ± 0.0033 s⁻¹,,

Variant,self-cleavage kobs at 640 uM GlcN6P [1],self-cleavage kobs at 2500 uM GlcN6P [2],self-cleavage kobs at 10000 uM GlcN6P [3]
C10U U46A U49A G62A,< 1e-05 s⁻¹,< 1e-05 s⁻¹,
G9U G29A U46A G51U C67U,< 1e-05 s⁻¹,< 1e-05 s⁻¹,
C11G U45C U46C C61U,< 1e-05 s⁻¹,< 1e-05 s⁻¹,
C10A A15G G32U C70G,0.000197 ± 7.6e-05 s⁻¹,,
C11G U30A A33C,< 1e-05 s⁻¹,< 1e-05 s⁻¹,
G9A G40C G44A G59U,< 1e-05 s⁻¹,,
C10G A12C G13A A14G A39U C70G,< 1e-05 s⁻¹,,
G9U G32A G43C,< 1e-05 s⁻¹,,
C10A G62U C70G,9.92e-05 ± 3.7e-05 s⁻¹,0.000143 ± 4.8e-05 s⁻¹,
C11A G38U A39U G60A,< 1e-05 s⁻¹,< 1e-05 s⁻¹,
C10U G38U U57G C61G G66U,0.000307 ± 9.3e-05 s⁻¹,,
C10A A36C U46A,< 1e-05 s⁻¹,< 1e-05 s⁻¹,< 1e-05 s⁻¹
C10U U31C A52U,< 1e-05 s⁻¹,,
C8A U31G C61A,< 1e-05 s⁻¹,,< 1e-05 s⁻¹
C10G G40C C71G,< 1e-05 s⁻¹,< 1e-05 s⁻¹,
G9C A12C G13U G44U C67A,< 1e-05 s⁻¹,,
C11A G44U A48G C61A,< 1e-05 s⁻¹,,
C11G A14G C34A G41U U49C,< 1e-05 s⁻¹,,
C8A U57G,< 1e-05 s⁻¹,< 1e-05 s⁻¹,
G9U G62C C67U,< 1e-05 s⁻¹,< 1e-05 s⁻¹,
C8G U57G G59A,< 1e-05 s⁻¹,< 1e-05 s⁻¹,
C10U A12C G60U,< 1e-05 s⁻¹,,
C8A G9C G37C,< 1e-05 s⁻¹,,

Variant,self-cleavage kobs at 640 uM GlcN6P [1],self-cleavage kobs at 2500 uM GlcN6P [2],self-cleavage kobs at 10000 uM GlcN6P [3]
G7U U47G A53U,< 1e-05 s⁻¹,< 1e-05 s⁻¹,
G9A G37A U46C,< 1e-05 s⁻¹,,
G9A C11A A14G C34G G35U A36U A48U U55C C67G U69C,< 1e-05 s⁻¹,,
C8A G13A C61U G62C C70A,< 1e-05 s⁻¹,< 1e-05 s⁻¹,
C10A C16A C68A,0.000126 ± 4.7e-05 s⁻¹,,
C8U U31G C34U U47A,< 1e-05 s⁻¹,,
C8G G41U A48U C70U,< 1e-05 s⁻¹,,
C8G G41A A52U,< 1e-05 s⁻¹,< 1e-05 s⁻¹,
C10G U49C G66C,< 1e-05 s⁻¹,< 1e-05 s⁻¹,
C11U G29U U54A,0.000113 ± 2.1e-05 s⁻¹,0.000171 ± 4.4e-05 s⁻¹,0.000577 ± 0.00014 s⁻¹
C8G C11U A15U G29C G41U,< 1e-05 s⁻¹,,< 1e-05 s⁻¹
A12C A15U A39G,0.000865 ± 0.00025 s⁻¹,0.00201 ± 0.00075 s⁻¹,0.003 ± 0.00075 s⁻¹
C11U A12G C67A,8.5e-05 ± 2e-05 s⁻¹,0.000771 ± 0.00025 s⁻¹,
C8A G13U G43A G44U G63U,< 1e-05 s⁻¹,,
G9A C10A G13C G29C,< 1e-05 s⁻¹,< 1e-05 s⁻¹,
C8G G32A U57G C67U,< 1e-05 s⁻¹,,
G9U U49G A52C A64C,< 1e-05 s⁻¹,,
C11A C16U U69G,0.000429 ± 0.00014 s⁻¹,,
G9U A15C A42U,< 1e-05 s⁻¹,,
C10A G63A U69A C71U,0.000215 ± 6.3e-05 s⁻¹,,
G9C G43U U55G A64G,< 1e-05 s⁻¹,< 1e-05 s⁻¹,
